Experimental data taken from US7981602B2, “Photoproteins with enhanced bioluminescence and assays using the same” (AXXAM S.R.L., priority 2005, dated 2011).

Assays:
[1] = Recombinant photoprotein light emission upon 1 mM calcium injection; assay type: biochemical; details: 1 mM CaCl2 (FIG. 6)
Procedure: For the production of the recombinant protein we followed a small scale protein purification protocol under native conditions. Due to the presence of an N-terminal His tag in our constructs, we decided to purify the expressed proteins on Ni-NTA Spin Columns (Qiagen) following the suppliers' protocol.
In order to evaluate the response of the photoprotein to different calcium concentrations, 0.05 ng/well (96 MTP) of the recombinant protein were charged with Coelenterazine 10 μM overnight at 4° C.
After incubation, different concentrations of CaCl2 were injected and the light released was measured at the Ascent Luminoskan with an integration time of 20 ms for a total time of 10 seconds.
Recombinant photoproteins corresponding to some mutants were produced under native conditions following a small scale purification protocol.
In another experiment, the recombinant photoprotein 25N03b was compared to recombinant Aequorin.

[2] = In vitro transcription and translation, light emission upon calcium injection; assay type: biochemical; details: translation mixture, 5 μM CaCl2 injected, luminescence recorded 10 seconds; comparison among the 8 mutants (FIG. 2)
Procedure: Translation of the photoproteins was carried out in the rabbit reticulocyte cell-free system (TNT Quick coupled kit, Promega), following the general instructions of the supplier. 500 ng of DNA was used for each in vitro transcription/translation reaction mix. The reaction volume (10 μl) included 8 μl of TNT T7 Quick Master Mix, 1.6 μl of DNA, 0.2 μl of the Methionine buffer and 0.2 μl of Coelenterazine (0.5 mM). To this end, 5 μl from each sample of the translation mixture were tested for light emission by the injection of calcium solution and by measuring at the Ascent Luminoskan (Labsystems).
5 μl of the translation mixture were directly mixed with 95 μl of PBS solution in a 96 well plate which was mounted into the Luminometer (Berthold). To trigger photoprotein light emission, a 5 μM CaCl2 solution was injected into the well and luminescence recorded for 10 seconds.

[3] = tested on: CHOK1/mito12mutCly cell line; assay: ATP-stimulated luminescence in CHOK1/mito12mutCly cell line (CCD camera); assay type: cell-based; details: ATP stimulation, 2.5 or 5 μM coelenterazine
Procedure: Clone Selection Process: • CHO-K1 were transfected with pcDNA3Neo^−/MITO-hMutated-clytin or pcDNA3Neo^−/CYTO-hMutated-clytin. • 48 h after transfection, the transfected cells were plated in 10×96 w/p in complete DMEM. • At confluence the 10×96 w/p were duplicated in 10 white plates. 3 1/2 hours before measurements, medium was replaced with 50 μl/well of tyrode (2 mM Ca^2+ and coelenterazine 10 μM). • Positive clones were selected evaluating: • First selection was done lysing cells with TRITON X-100. CCD camera conditions: low sensitivity, integration time 1 second reading for 5 seconds. • Five clones were chosen each diluted in 3×96 w/p. • At confluence the 15×96 w/p were duplicated in 15 white plates. […] CCD camera conditions: low sensitivity, integration time 1 second reading for 30 seconds for the ATP measurement followed by 30 seconds for TRITON X-100. • Four limiting dilutions of the best clone selected were performed, 0.3 cells per well in 10×96 w/p. • The final clone was chosen after the 4th LD selected with ATP 0.25 μM, coelenterazine 5 μM. • Complete optimization of the assay was performed on the best responding clone.
CHO cells are seeded at different cell densities in 384MTP (500, 750, 1,000, 1,500 cells/well) in growth media supplemented as above and measured with a CCD camera 24 hours and 48 hours after plating. […]

B1: 25N03b: mutant Clytin photoprotein from random mutagenesis, clone 25N03b (sequence ID no 16) (protein)
chain: MADTASKYAVKLRPNFDNPKWVNRHKFMFNFLDINGDGKITLDEIVSKASDDICAKLGATPEQTKRHQDAVEAFFKKIGMDYGKEVEFPAFVDGWKELANYDLKLWSQNKKSLIRDWGEAVFDIFDKDGSGSISLDEWKAYCRISGICSSDEDAEKTFKHCDLDNSGKLDVDEMTRQHLGFWYTLDPNADGLYGNFVP
light emission recorded upon 1 mM CaCl2 injection, compared to recombinant Aequorin [1]: surprisingly higher | light emission of in vitro translated mutants upon calcium injection [2]: best responding mutant

B2: 12mutCly: mutant Clytin photoprotein 12mutCly (SEQ ID NO: 19), expressed in CHOK1 cells (protein)
chain: MADTASKYAVKLRPNFDNPKWVNRHKFMFNFLDINGDGKITLDEIVSKASDDICAKLEATPEQTKRHQVCVEAFFRGCGMEYGKEIAFPQFLDGWKQLATSELKKWARNEPTLIREWGDAVFDIFDKDGSGSISLDEWKAYGRISGICSSDEDAEKTFKHCDLDNSGKLDVDEMTRQHLGFWYTLDPNADGLYGNFVP
light emission and sensitivity to Ca2+ in cells [3]: high light emission and sensitivity to Ca^2+
